Assay [1] has as its target wild-type POT1-TPP1 complex (POT1-TPP1N) (human) (UniProt Q9NUX5).
The target in assay [2] is POT1-TPP1 E215K complex (wild-type POT1 with TPP1N E215K) (human) (UniProt Q9NUX5).
For assay [3], the target named is POT1-TPP1 E169K complex (wild-type POT1 with TPP1N E169K) (human) (UniProt Q9NUX5).
For assay [4], the target named is POT1-TPP1 E215K complex (wild-type POT1 with TPP1N E215K) (human) (UniProt Q9NUX5). The source holds these as a separate data set.
In assay [5] the target is wild-type POT1-TPP1 complex (POT1-TPP1N) (human) (UniProt Q9NUX5). The source holds these as a separate data set.
The target in assay [6] is POT1-TPP1 E169K complex (wild-type POT1 with TPP1N E169K) (human) (UniProt Q9NUX5). The source holds these as a separate data set.
The target of a further assay is GFP-TPP1-OB-LacI (human). The assay can be described thus: LacI-LacO tethering assay (co-localisation of GFP and mCherry foci); GFP-TPP1-OB-LacI tethered to a single LacO array on chromosome 1 of U2OS 2-6-3 cells, co-transfected with mCherry-hTERT and hTR; fixed cells, intrinsic fluorescence; fraction of nuclei with co-localised foci (n = 3, 117-176 nuclei total).
GFP-TPP1-OB-LacI (human), sequence (Q96AP0 whole entry): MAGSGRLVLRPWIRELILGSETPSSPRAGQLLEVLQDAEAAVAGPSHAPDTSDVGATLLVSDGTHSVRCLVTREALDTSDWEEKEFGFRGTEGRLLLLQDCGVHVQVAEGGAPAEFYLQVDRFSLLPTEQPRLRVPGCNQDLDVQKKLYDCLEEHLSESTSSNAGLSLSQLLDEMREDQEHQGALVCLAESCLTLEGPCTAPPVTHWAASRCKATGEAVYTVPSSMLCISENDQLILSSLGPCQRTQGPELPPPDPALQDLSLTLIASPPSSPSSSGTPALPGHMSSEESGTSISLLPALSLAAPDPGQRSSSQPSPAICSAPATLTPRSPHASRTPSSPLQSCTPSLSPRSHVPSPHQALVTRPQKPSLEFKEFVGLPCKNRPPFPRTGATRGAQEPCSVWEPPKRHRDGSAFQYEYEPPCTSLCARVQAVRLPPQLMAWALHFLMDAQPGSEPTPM

“hTERT K78A telomerase (ZZ-TEV-3xFlag-hTERT K78A with hTR) (from UniProt O14746 1-1132) (enzyme)”: the RAP stimulation by PT % of WT (direct telomerase activity assay) in assay [1] is 88 % of WT. As to “hTERT K78E telomerase (ZZ-TEV-3xFlag-hTERT K78E with hTR) (from UniProt O14746 1-1132) (enzyme)”, the RAP stimulation by PT % of WT (direct telomerase activity assay) in assay [1] was 68 % of WT. The RAP stimulation by POT1-TPP1 relative to wild-type telomerase and wild-type TPP1 (direct telomerase activity assay) in assay [2] was 98%; in assay [3], < 24%. For “hTERT K78E;R120E telomerase (ZZ-TEV-3xFlag-hTERT with hTR) (from UniProt O14746 1-1132) (enzyme)”, the RAP stimulation by PT % of WT (direct telomerase activity assay) in assay [1] was 38 % of WT.

“hTERT K78E;R132E telomerase (ZZ-TEV-3xFlag-hTERT with hTR) (from UniProt O14746 1-1132) (enzyme)”: the RAP stimulation by PT % of WT (direct telomerase activity assay) in assay [1] was 18 % of WT. Moreover, the RAP stimulation by POT1-TPP1 relative to wild-type telomerase and wild-type TPP1 (direct telomerase activity assay) in assay [2] and in assay [3] was < 23% throughout.

“hTERT R72E telomerase (ZZ-TEV-3xFlag-hTERT R72E with hTR) (from UniProt O14746 1-1132) (enzyme)”: in assay [1], the RAP stimulation by PT % of WT (direct telomerase activity assay) is 91 % of WT.

For “hTERT R87E;R91E;K94E telomerase (ZZ-TEV-3xFlag-hTERT with hTR) (from UniProt O14746 1-1132) (enzyme)”, the RAP stimulation by PT % of WT (direct telomerase activity assay) in assay [1] was 61 % of WT. Still for that read-out and setting: next, “hTERT R120E telomerase (ZZ-TEV-3xFlag-hTERT R120E with hTR) (from UniProt O14746 1-1132) (enzyme)”: 55 % of WT. As to “hTERT R132E telomerase (ZZ-TEV-3xFlag-hTERT R132E with hTR) (from UniProt O14746 1-1132) (enzyme)”, the RAP stimulation by PT % of WT (direct telomerase activity assay) in assay [1] is 24 % of WT. The RAP stimulation by POT1-TPP1 relative to wild-type telomerase and wild-type TPP1 (direct telomerase activity assay) in assay [2] and in assay [3] was < 23% throughout.

For “hTERT R142E telomerase (ZZ-TEV-3xFlag-hTERT R142E with hTR) (from UniProt O14746 1-1132) (enzyme)”, in assay [1], the RAP stimulation by PT % of WT (direct telomerase activity assay) was 103 % of WT.

As for “hTERT V144M telomerase (ZZ-TEV-3xFlag-hTERT V144M with hTR) (from UniProt O14746 1-1132) (enzyme)”, the RAP stimulation by PT % of WT (direct telomerase activity assay) in assay [1] was 44 % of WT. Further, the figures for the RAP stimulation by POT1-TPP1 relative to wild-type telomerase with wild-type POT1-TPP1 (direct telomerase activity assay) in assay [4] and in assay [6] were 37% and 28%, respectively. This substance showed a POT1-TPP1 RAP stimulation compared to wild-type telomerase (direct telomerase activity assay) in assay [5] of 61%. In the case of “mCherry-hTERT K78E (with hTR) (from UniProt O14746 1-1132) (enzyme)”, the fraction of TPP1-OB-fold domain foci showing telomerase signal with GFP-TPP1-OB-LacI (human) turned out to be 55%. Same read-out and setting: the figure for “mCherry-hTERT R132E (with hTR) (from UniProt O14746 1-1132) (enzyme)” is 30%.

In the assay with GFP-TPP1-OB-LacI (human), “mCherry-hTERT wild type (with hTR) (from UniProt O14746 1-1132) (enzyme)” had a fraction of nuclei with co-localisation of 90%. “wild-type telomerase (ZZ-TEV-3xFlag-hTERT with hTR) (from UniProt O14746 1-1132) (enzyme)”: the RAP stimulation by POT1-TPP1 relative to wild-type telomerase and wild-type TPP1 (direct telomerase activity assay) in assay [2] was 78%; in assay [3], < 24%.

(Values after publication PMC4359370.)
